In the supplement of paper PMC6757056:
± gives the standard deviation of the averaged measurements.

B1: library; a variant is named by its letters at N, in order (parent)
chain: GCUGUCACCGGUGCUUGGUACGUUAUAUUCAGCCGGUCUGAUGAGUCUNNNNNNAGACGAAACAGC

Assays:
(6R,S)-folinic acid [1] = variants of: B1; assay: normalized RNA/DNA level without ligand (relative to sTRSVctl = 100) (log10 (% of sTRSVctl)); HEK293T overexpressing SLC46A1; higher = less ribozyme self-cleavage, higher mRNA level; conditions: without (6R,S)-folinic acid; ligand present: no
Method in brief: (§1)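 Total RNA, extracted with EDTA 72 h after HEK293T cells were transfected with 4 µg per 6-well well of reporter-linked ribozyme switch library plasmids, was reverse-transcribed, amplified, barcoded and sequenced. Ligand, if used, was added 1 h before transfection. RNA level was derived from RNA reads divided by DNA reads and normalized to a spiked-in non-cleaving sequence or to the top sequences. This was multiplied by 100 and log10-transformed, with the top set of 25 sequences and a ≥100 DNA read minimum.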

(6R,S)-folinic acid [2] = variants of: B1; assay: normalized RNA/DNA level with ligand (relative to sTRSVctl = 100) (log10 (% of sTRSVctl)); HEK293T overexpressing SLC46A1; ligand concentration (+) RNA-Seq: 6 mM; higher = less ribozyme self-cleavage, higher mRNA level; conditions: with (6R,S)-folinic acid; ligand present: yes
Method in brief: as §1

Row | Variant | normalized RNA/DNA level without ligand (log10) ((6R,S)-folinic acid [1]) | normalized RNA/DNA level with ligand (log10) ((6R,S)-folinic acid [2])
1 | AUAGUU | 1.9853 ± 0.0008 | 2.009 ± 0.01
2 | AUAGUC | 2.056 ± 0.0045 | 2.03 ± 0.033
3 | GUCCGU | 2.02 ± 0.021 | 2.022 ± 0.012
4 | GUCCGC | 2.07 ± 0.011 | 2.045 ± 0.0035
5 | AUAUUA | 1.963 ± 0.012 | 1.996 ± 0.019
6 | AUAUUU | 2.008 ± 0.0083 | 2.02 ± 0.027
7 | AUAUAA | 1.956 ± 0.0059 | 1.96 ± 0.032
8 | CUCAGC | 2.06 ± 0.0071 | 2.032 ± 0.0023
9 | CUCAGA | 2.048 ± 0.019 | 2.03 ± 0.07
10 | CUCAGG | 1.99 ± 0.021 | 2.03 ± 0.03
11 | CUCAGU | 2.024 ± 0.015 | 2.017 ± 0.015
12 | CUAUGG | 1.97 ± 0.03 | 2.039 ± 0.014
13 | CUAUGA | 2.02 ± 0.013 | 2.02 ± 0.027
14 | CUAUGC | 2.036 ± 0.0043 | 2.036 ± 0.0099
15 | GUAUCU | 2.034 ± 0.0026 | 2.038 ± 0.011
16 | GUAUCC | 2.015 ± 0.013 | 2 ± 0.035
17 | GUAUCG | 2.028 ± 0.017 | 2.05 ± 0.041
18 | CUCAAG | 1.96 ± 0.024 | 2.01 ± 0.023
19 | CUCAAC | 2.07 ± 0.029 | 2.045 ± 0.0073
20 | CUCAAA | 2 ± 0.016 | 1.97 ± 0.032
21 | UUACAU | 1.96 ± 0.025 | 1.98 ± 0.028
22 | UUACAC | 2.003 ± 0.0021 | 1.99 ± 0.038
23 | UUACAG | 1.898 ± 0.017 | 1.99 ± 0.027
24 | UUACAA | 1.963 ± 0.0022 | 2.01 ± 0.028

Row | Variant | normalized RNA/DNA level without ligand (log10) ((6R,S)-folinic acid [1]) | normalized RNA/DNA level with ligand (log10) ((6R,S)-folinic acid [2])
25 | AUAGAA | 1.937 ± 0.0051 | 1.98 ± 0.028
26 | UUAUUA | 1.975 ± 0.0052 | 1.99 ± 0.02
27 | UUAUUC | 2.012 ± 0.0098 | 2.02 ± 0.079
28 | UUAGGU | 1.942 ± 0.0098 | 1.971 ± 0.016
29 | UUAAUC | 2.0392 ± 0.0017 | 2.03 ± 0.034
30 | UUAAUU | 2.011 ± 0.0048 | 2.01 ± 0.042
31 | GUAUUG | 1.9409 ± 0.00012 | 2.003 ± 0.0063
32 | GUAUUA | 2.005 ± 0.01 | 2 ± 0.072
33 | GUAUUC | 2.03 ± 0.025 | 2.021 ± 0.019
34 | AUCAUU | 2.05 ± 0.024 | 2.03 ± 0.023
35 | AUCAUA | 1.98 ± 0.02 | 1.99 ± 0.046
36 | AUCAUC | 2.01 ± 0.022 | 1.98 ± 0.031
37 | AUCAUG | 1.989 ± 0.009 | 2.005 ± 0.019
38 | CUCCAG | 2.033 ± 0.011 | 2.0495 ± 0.00031
39 | CUCCAA | 2.03 ± 0.021 | 2.02 ± 0.025
40 | CUCCAC | 2.0214 ± 0.0016 | 2.01 ± 0.046
41 | CUCCAU | 2.021 ± 0.011 | 2.03 ± 0.0026
42 | GUCACA | 1.991 ± 0.0044 | 1.996 ± 0.0028
43 | GUCACU | 2.02 ± 0.025 | 2.03 ± 0.042
44 | AUCCCU | 2.039 ± 0.0098 | 2.027 ± 0.012
45 | AUCCCG | 2.01 ± 0.0024 | 2.01 ± 0.029
46 | AUCCCC | 2.047 ± 0.013 | 2.01 ± 0.05
47 | AUCCCA | 2.022 ± 0.0087 | 2.03 ± 0.036
48 | AUAGGA | 1.91 ± 0.022 | 1.99 ± 0.053

Row | Variant | normalized RNA/DNA level without ligand (log10) ((6R,S)-folinic acid [1]) | normalized RNA/DNA level with ligand (log10) ((6R,S)-folinic acid [2])
49 | UUCCAC | 2.01 ± 0.016 | 1.99 ± 0.033
50 | UUCCAG | 1.91 ± 0.021 | 1.99 ± 0.034
51 | UUCCAU | 1.99 ± 0.023 | 1.99 ± 0.049
52 | AUAAGA | 1.971 ± 0.0094 | 2.01 ± 0.034
53 | AUCACG | 1.969 ± 0.014 | 2.01 ± 0.043
54 | AUCACC | 2.057 ± 0.0026 | 2.04 ± 0.053
55 | AUCACU | 2.029 ± 0.008 | 2.01 ± 0.03
56 | GUACAU | 1.965 ± 0.005 | 2.01 ± 0.034
57 | GUACAA | 1.966 ± 0.013 | 1.986 ± 0.011
58 | GUCCAU | 1.9991 ± 3.5e-06 | 2.008 ± 0.016
59 | GUCCAA | 1.992 ± 0.011 | 2.01 ± 0.035
60 | GUCCAC | 2.006 ± 0.011 | 2.011 ± 0.017
61 | CUAGCA | 2.038 ± 0.0039 | 2.041 ± 0.0037
62 | CUAGCU | 2.033 ± 0.0023 | 1.993 ± 0.014
63 | CUAGCG | 2.0229 ± 0.0015 | 2.05 ± 0.042
64 | CUAGCC | 2.024 ± 0.015 | 1.98 ± 0.036
65 | GUAUGU | 1.937 ± 0.015 | 1.995 ± 0.013
66 | GUAUGA | 1.987 ± 0.0024 | 2.028 ± 0.017
67 | GUAUGG | 1.921 ± 0.015 | 2.02 ± 0.035
68 | UUAGAU | 1.946 ± 0.012 | 1.99 ± 0.021
69 | UUAGAC | 2 ± 0.01 | 2.01 ± 0.041
70 | GUACUG | 2.002 ± 0.013 | 2.015 ± 0.017
71 | AUCAAC | 2.0326 ± 0.00048 | 2.01 ± 0.033
72 | AUCAAG | 1.93 ± 0.021 | 2 ± 0.026

Row | Variant | normalized RNA/DNA level without ligand (log10) ((6R,S)-folinic acid [1]) | normalized RNA/DNA level with ligand (log10) ((6R,S)-folinic acid [2])
73 | AUCAAA | 2.002 ± 0.0041 | 2 ± 0.04
74 | AUCAAU | 1.989 ± 0.0025 | 2 ± 0.053
75 | GUACGC | 2.01 ± 0.029 | 2.03 ± 0.026
76 | GUACGU | 1.986 ± 0.006 | 2.03 ± 0.049
77 | AUACAC | 2.01 ± 0.026 | 2.04 ± 0.039
78 | GUAGUC | 2.038 ± 0.0078 | 2.03 ± 0.032
79 | GUAGUU | 2.003 ± 0.0023 | 2.02 ± 0.021
80 | GUAGUA | 1.9662 ± 0.0006 | 1.98 ± 0.025
81 | UUAUAU | 1.9416 ± 0.0019 | 2 ± 0.057
82 | UUAUAA | 1.925 ± 0.0034 | 1.981 ± 0.017
83 | CUAUUC | 2.06 ± 0.024 | 2.008 ± 0.0052
84 | CUAUUA | 2.017 ± 0.013 | 2.009 ± 0.0054
85 | GUACCG | 2.088 ± 0.0044 | 2.06 ± 0.014
86 | GUACCU | 2.086 ± 0.0075 | 2.06 ± 0.051
87 | GUACCA | 2.0976 ± 0.0018 | 2.038 ± 0.013
88 | GUACCC | 2.02 ± 0.03 | 2.03 ± 0.06
89 | GUCAUU | 2.068 ± 0.0023 | 2.007 ± 0.0048
90 | GUCAUA | 1.994 ± 0.0035 | 1.99 ± 0.055
91 | GUCAUC | 2.0573 ± 0.0006 | 2.01 ± 0.0035
92 | UUAGUC | 2.031 ± 0.0018 | 2.024 ± 0.0089
93 | UUAGUU | 1.972 ± 0.0056 | 1.97 ± 0.052
94 | UUAGUG | 1.759 ± 0.012 | 1.962 ± 0.012
95 | UUAGUA | 1.9501 ± 0.0015 | 1.98 ± 0.026
96 | UUCCGC | 2.03 ± 0.026 | 2.01 ± 0.039

Row | Variant | normalized RNA/DNA level without ligand (log10) ((6R,S)-folinic acid [1]) | normalized RNA/DNA level with ligand (log10) ((6R,S)-folinic acid [2])
97 | UUCCGG | 2.025 ± 0.006 | 2.03 ± 0.031
98 | UUCCGU | 2.0373 ± 0.0012 | 2.05 ± 0.048
99 | CUACAG | 1.977 ± 0.011 | 2.03 ± 0.029
100 | CUACAA | 1.98 ± 0.0052 | 1.99 ± 0.024
101 | CUACAC | 2.05 ± 0.011 | 2.023 ± 0.016
102 | CUACAU | 1.974 ± 0.0066 | 2.02 ± 0.039
103 | AUCCAG | 1.981 ± 0.0027 | 2 ± 0.031
104 | AUCCAA | 1.958 ± 0.0049 | 1.98 ± 0.02
105 | AUCCAU | 1.991 ± 0.0092 | 2.01 ± 0.042
106 | AUCCAC | 2.037 ± 0.013 | 2.02 ± 0.037
107 | AUCAGG | 1.96 ± 0.023 | 2.04 ± 0.041
108 | AUCAGC | 2.065 ± 0.016 | 2.02 ± 0.031
109 | AUCAGA | 2.047 ± 0.0058 | 2.04 ± 0.031
110 | CUAUCU | 2.042 ± 0.0051 | 2.06 ± 0.022
111 | CUAUCC | 2.07 ± 0.03 | 2.04 ± 0.037
112 | CUAUCA | 2.03 ± 0.035 | 2.0307 ± 0.00092
113 | CUAUCG | 2.037 ± 0.015 | 2.02 ± 0.043
114 | GUCAAU | 1.975 ± 0.018 | 2.02 ± 0.045
115 | GUCAAA | 1.994 ± 0.009 | 1.99 ± 0.037
116 | GUCAAC | 2.0058 ± 0.0019 | 2.03 ± 0.03
